Results reported in publication PMC5428437, “The function of two P450s, CYP9M10 and CYP6AA7, in the permethrin resistance of Culex quinquefasciatus” (Scientific Reports, 2017).

What was measured:
[1] = substrate: CCOc1ccc2ccc(=O)oc2c1; assay: 7-ethoxycoumarin O-deethylation (ECOD), fluorescence of 7-hydroxycoumarin, Sf9 microsomes; assay type: biochemical, Culex quinquefasciatus; details: 1 mM NADPH, 0.1 M sodium phosphate pH 7.5, 30 °C, 30 min, substrate 0.1 to 1.2 mM, apparent
From the text: 7-ethoxycoumarin O-deethylation (ECOD), fluorescence of 7-hydroxycoumarin, Sf9 microsomes on CYP9M10/CPR

[2] = substrate: CCOc1ccc2ccc(=O)oc2c1; assay: as above; assay type: biochemical, Culex quinquefasciatus; details: 1 mM NADPH, 0.1 M sodium phosphate pH 7.5, 30 °C, 30 min, substrate 0.1 to 1.2 mM, apparent; remark: listed apart in the source
From the text: 7-ethoxycoumarin O-deethylation (ECOD), fluorescence of 7-hydroxycoumarin, Sf9 microsomes on CYP6AA7/CPR

B1: CYP9M10/CPR (Culex quinquefasciatus) (protein)
chain: MTSLEWLLLLVPTAIYLFYRWSVATFDYFEKRGVPFVKPVPLLGGMWNFFSGKMHMVDAGSLGYEMFPDSRFSGFFAFRKPGYLIHDPELVKQITIKDFDHFADHTNVVPIEADPVLGRALFFTEGTRWKHGRSGLSPAFTGRKMRNMFALLSNYMEGAMGRLVDDARRDGGLELEMRDLFQKLGNDVTTSLSFGVEIDSVHNPNNEFMRRGKELIATDGIQGLKFLLLTVLPKSFFRTLRIRIIPKEATDFYVDVISKTIKQREEHNIVRPDFIHLLVQGRKNELKMEQADDQLKSAGFSTVEEHLQSSTENSQYSDLDITAAAASFFFGGLETTTTVICFALYEMSQNPNVKQKLQAEIDQVKEQLSTTDSKLSYEVLQNMKYLDMVVSETLRRWAPLGLTNRACTKPYTIEDNNGTKVSIQVGDLIQIPIQSIHRDHRFYPDPYKFDPERFSEENKANINRSAFLPFGSGPRNCIGSRLALMQTKCFLYYTLANFELELCPKTDVPIKLNKRSVSLDTLSGFWFRMVPRGEMKK
notes: complete reading frames cloned from 4th instar larvae cDNA; microsomal protein, not purified; with NADPH--cytochrome P450 reductase
Km [1]: 779.3 ± 16.0 µM

B2: CYP6AA7/CPR (Culex quinquefasciatus) (protein)
chain: MSLLNTLLYLVLPVAALIYLFVRRKLSYWADRNVPHAPGSFPMGSLQGMGTKYHMSHILERIYQQFKNESPAVGFYLTMKPTLMVTDLELVKQVLVKDFNSFRDRGVYYNEKDDPVSAHLFAIDGEKWRFLRNKLSPTFTSGKIKYMFNTMQEIGDEFVECFGRYEEREEAVDVKTLCGWFTCDVIGSCAFGLNCNSLKNEESELITIANRLFKPSPIDAMWQFFFMSFRDLSAKLRLLILPRDIAKYFMTLIPETVTYREQNNVTRPDFLQLLIQLKNKGTVDGAEQESSGETLTMNQVVAQSFVFMLGGFETTSTALTFALFELANNPEIQEKVRVEVSSVLARHDGKITYDALKEMTYLEQVVNETLRMYPPVPFVARNSNHSYHITHPDVTLDADTMVLVPVYAIHYDPDIYQNPTRFDPDRFTPEATQARHTHAFLPFGDGPRNCIGLRFALLEVKFGIAVLLSKFRFSPSAKMILPLELDISAPMMAAKGGVWLDVNKINSKE
notes: as for B1
Km [2]: 564.8 ± 14.7 µM
